The target in assay [1] is T1, vaccinia virus recombinant B5 protein (vaccinia virus, UniProt Q01227 20-275). Description: ELISA, B5 capture, IgG detect (luminescence) [C].
The target in assay [2] is T1, vaccinia virus recombinant B5 protein. Description: surface plasmon resonance; format not stated; target taken from the text.

B1: Ch8AH8AL (antibody, V domains shown)
VH: EVQLVESGGGLIKPGGSLRLSCAASGFIFRDYNINWVRQAPGKGLEWLGFIRTRASGRSTEYSASVKGRFTISRDDSKNIAYLHINSLKMEDTAVYYCAKKGDSYYYMDFWGKGTAVTVSS
VL: ELALTQPASVSGSPGQSITISCTGGRSDLGDSNFVSWYQQYPGKAPKLLIYQVNKRPSGVPDRFSASKSANTASLTISGLQTEDEADYFCSSYTTTSTYVFGIGTKVVVLG
Turning to B1, in assay [1], the “EC50 (read off the curve)” value is ~0.03 µg/mL. In addition, in assay [2], the Kd was ≤ 0.6 nM, the koff was ≤ 1e-05 s⁻¹ and the kon came out at 20000 M⁻¹ s⁻¹.

As a reminder, the EC50 (read off the curve) is the concentration needed to bring the measured effect to its halfway point. Usually Kd stands for a measure of binding affinity in units of concentration. Broadly, the koff is the rate constant with which the complex falls apart. A word on the kon: it is the rate constant with which the complex forms.

The values above are taken from patent US20090162353A1 (MacroGenics, published 2009).
